Results on one substance are retold here after paper PMC11633510.

Test [1] has as its target Recombinant Protein A (UniProt P38507). Put plainly: MetaSPR; double-layer (Ti-Ag-Au) nanocup array chip, 96-well; Protein A (20 µg/mL in CBS buffer) immobilised 16 h, blocked with 1% BSA; IgG 0.1-66.7 nM in PBS; 10 min association, 15 min dissociation.
Test [2] has the same target. Nature of the test: MetaSPR; quantitative detection by differential absorption spectra, dual-wavelength OD difference (OD615-OD590); triple-layer chip; Protein A immobilised; IgG 0-10 µg/mL.
The target is the same in test [3]. Put plainly: MetaSPR; single-layer (Ti-Au) nanocup array chip, 96-well; Protein A (20 µg/mL in CBS buffer) immobilised 16 h, blocked with 1% BSA; IgG 0.1-66.7 nM in PBS; 10 min association, 15 min dissociation.
Test [4] has the same target. Put plainly: MetaSPR; triple-layer (Ti-Au-Ag-Au) nanocup array chip, 96-well; Protein A (20 µg/mL in CBS buffer) immobilised 16 h, blocked with 1% BSA; IgG 0.1-66.7 nM in PBS; 10 min association, 15 min dissociation.
The target is the same in test [5]. Put plainly: MetaSPR; quadruple-layer (Ti-Ag-Au-Ag-Au) nanocup array chip, 96-well; Protein A (20 µg/mL in CBS buffer) immobilised 16 h, blocked with 1% BSA; IgG 0.1-66.7 nM in PBS; 10 min association, 15 min dissociation.

Take “Immunoglobulin Antigen (Human IgG) (antibody)”: the Kd with Recombinant Protein A [1] stood at 0.116 nM; with Recombinant Protein A [3], 0.24 nM; with Recombinant Protein A [4], 0.122 nM; with Recombinant Protein A [5] it was 0.218 nM. For the same substance, the maximum reaction value (dual-wavelength OD difference) at the highest IgG concentration (10 µg/mL) with Recombinant Protein A [2] stood at 0.435.

By Kd is commonly meant a measure of binding affinity in units of concentration.
